From the DeepSol protein solubility set

Test: soluble on expression in E. coli; label from the status in PepcDB or PDB records

Soluble on expression in E. coli, not soluble:
MGSDKIHHHHHHMTVSNPAKSIRIGTMISGNNGDAATRIREIAGLGFESFEPFFWQTTKGQNLAELGKRCVDAIGDRDITISTLGMFGNPLEETDIDLETLEGWKQCIDNAHHFGASCVAGFTGRLRGKVLTDSLPRYREIWSELAKRAADKGIRIAFENCAMDGNWQSGDWNIAHNPDAWELMFNETPDDNIGLEWEPCHQMVYLIDPLPQIRKWASKIFHVHGKDATIRWDVIREHGIFGKEPFVFMRTPGFGDSNWTNVISELRLAGYSGSIDIEGWHDPVYRDALEMTGQVHALNHLKQARGGDFIDEMAAYGGGDPSLK
MGSDKIHHHHHHMTWTDLKSSLAAEGYVASDDLAVALQLALSLGRPLLLEGAAGVGKTEIARTLSAVRDTRLIRLQCYEGLDAAQAIYEWNYQRQLLTIRAASEAGETGKAVEDRIFSRDFLLERPLLAAITQEMAPVLLIDEIDRADEEFEAYLLEILSDFQVSIPELGTITAVTRPMVVLTSNGTRDLSDALRRRCLYTYVEYPDRTAELAILKARCPDVEARLAEQIIGFVQRLREEELEKTPGVAEMLDFAAALMGLGIADLTDNPAVLQSTLTTLLKTQSDQAQITREVAGRIAVKAA
MGSDKIHHHHHHMTYREYKEPATRAGGIIELPHRTDANRFLASLGVAERATLASHLQLVHVKSGQVLCEPGMALEHVYLPVTTVISIQYASSDGMTLEIAEIGNEGIVSPQLVGTDGASPCRVITCRDGFSYRLGARVLSNLLEESAQTRQAIFRCTHLLMAQAKQISFCSRHHVLKNQLCRWFLLAYDRSRSVEIQVTHSMLAQMLGVRRETVTDAAGDIQKMGLIRQYRSSIILVDLPGLDAQSCGCHAIIREEMKKIQAAPTSASGTLTELRS
MGSDKIHHHHHHMTYSKQSEWREIQSYLPKKYHFTDNYHPTEEWWNWKGHEVHLDCFRNEKAPVKVILLHGVGTNGRQMSMILGGPLSKDGFETIAIDMPTYGVTKVKKGSVVKYDDWVDLACDYIDYEQQRDDRPIVLYGLSAGGMETYHVAAKNKKVKGIIGMTFLDQKNQQVRDETAKNLVMSRVGIPMAGIACNIGLENFKMKMSTASKMSALCNNEKVMEIFNRDKTSAANKASMRFLDSYGNYQPAMEPEDFDVCPILLTQPEQDKWTPLHLSTPFLNKIKKVDVKIVMLENGGHYPVEQPALDQMHDAIVEFIYKVTK
MGSDKIHHHHHHMVAQIQELEAQHWVKTRSSLDPNESTFLIWKGKIYAFIPGEKRQLLFKILGLSVSRCIPTAEGSWDFTSRELTYYLNPKTDEILRKWENPWTSETVPVIHVANNPVQGKFEGNFPAQVDGDSTTFVFDIFPYYPNPLADDPKFAEYSPNPIYQAAELFKLTVPTADLFNSALPSVSELKLSWDRIGQWLPWMKMGDRPGQLIYSAVGSKVNGLTELPPLLQDEINNRIPLYKQAPKALIDGEDMTSWLYFQKHFPAYLAGEIFPLPQAEEL
MGSDKIHHHHHHMVEEQHVTQYGSLLKPCMSRLENLLVHQYVECWLYWSCYETETDTRIRGIWQFMFEQELKHLHIALELLRQYEKKDWQEVIPDAEFPAPLVLESNIEYVRCVLGSTVNDTACRERYVDVRNNAPETFIRYQRMVNDPVRNVMSHTFIEDYIRKNGEDYRFEVAPNPVPELRDRTKDNICVGRQPLCRNRY
MGSDKIHHHHHHMVGCLTLTLLVGCSAAEKPVEQVKQVKNTLTAKLATEEKMIEIDGQTIYFKKIGNEKPPLLMIHGFGGSSDGFQKIYSDLAKNHTIISVDALGFGRSSKPMDFYYSFPTHANLYYKLMKKLGYDSFAILGHSMGGEISLNLTYLYPEAVTHLILTDATGGPHTLVNKQGSPRPQLSTDLNTVSAITDYDESKVKFKRNDEEHYNKMKLWPRRLQINADEIKQPTLIIWGRNDSSVSWEEGETYHQFFKNSTFHIIEKGYHAPFRQEPQEFVGYVKDFFDKNPIIAEK
MGSDKIHHHHHHMVKIAVLGLGRVGLRAAYNLASRGFDVLGLDASNDAVSRARSLGLEARLYDVEGRKAGEYLRGQRVVAAFIALPYPVASRAVAHLSSAGIPVVVASIKPLRIDPGVVRAPILTEVGVSPGLSNVILYSMAAETGGGVSARVYVGSFGAREDGLLSHASTWRVEEMLEQYVTPAKLIQDGSEAVADPLDPSLWMEYSDPEHGVLECFPSQGLAGFISRRGSLFKELMECSLRRRGHLKVVLTMRGLGLLDSTPLKVSGCIVRPFDMAVKLVETRYPPDVGDVAVFTVEARRGGRWETLARASLRHGGGWSASSKMVGGASSAFAEVFAAEGLSEEEPGIIYPEDLYELGLAEKLLSLLPSHGVSLEVG
MGSDKIHHHHHHMVKRMKLPESKNLSLYWEKYSFLLLEGSNSKDKEIVSKIFQTVEKLQSDFGKISSILKERREQLIKKRKPFINLKMRVKGKLLLGAGNPSSIEVGITLSRNYGLPIIPGTAVKGAFASFLFEFERDKYESLAHIFGDTEREGDLIFLDAIPVSDLKFSLDIVNPHFQPYYMKEKLPPNDWYDPVPIKYLVVSSGVFWFTVLESRSGVIGNSEKELIKQRFVEMLKAYGLGAKTSYGYGRFEEPS
MGSDKIHHHHHHMVKSNICGGSTMTQTLPKLVTFEQFIEWYPSNGARYELHKGVIVEMPPPSGEHENVVGFLAAQITLQFLQMGLPFCIPKTAFVKIQSNNSTYSPDILLLNHDNLVNEPLWSKQSTVIQAASIPLAVEVVSQCVARVPRVEATDEPVRVSTNWRDDYYDKFRDYEEMGIPEYWIVDYAAIGGKRFTGNPKQKTITICELVEGDYQMTVFRENNFVVSPLFPQLNLTAQQIFDSAL
MGSDKIHHHHHHMVNLDGGYTAYEQQHNNESFKLEKDKEIQIKDNRKTFNYSNLQCPGPIVNISKEIKNIAIGDQIEVVVTDHGFLNDIKSWVKQTGHTLVRLNDSGNEIRAIIQKEENKNIEVTHTKNGTTIVLFSGELDKAVAAMIIANGAKAAGRDVTIFCTFWGLNALKKIQSQRIKKKGIAKLFDFMLPNSPIKMPISKMNMFGVGNLMMRYVMKKKNVDDLPSLINQAVEQGVKLIACTMSMDVMGISKEELRDDVEYGGVGAYIGYTEQANHNLFI
MGSDKIHHHHHHMVRKKKEVAQVPSTSKEIKDTLWKSADKLRGSMDASQYKDVALGLVFLKYVSDSFEERQKEIRAELEGKGFDEEYILEDLADVDAYTSENVFWVASNARWDFLKKYSKGMDLEGKHKSIGKLIDEAMQQLMADNESLLGTLPQIYGKDNIDQRRLGELVDLFSSTYFASTKDKKARDLLGEVYEYFLDKFAKAEGKRGGEFYTPQPVVRTLVEILEPTEGRVYDPCCGSGGMFVQAEKFLEVTKRDRSNIAVYGQELNERTWRMAKMNLAIHAISSSGLGERWGDTFARDIHAGTKMDYIMANPPFNIKDWIRNEEDARWKYGVPPAKNANFAWIQHIISKLKDHGEAGVVMANGTMTSQSSGEGEIRKNMVEDDVVSCVIALPAQLFRGTGIPVCVWFFAKDKSAGVGGSVDRRGEVLLIDARQLGHMIDRTERAFSDEDITKIANAFRTWRGRKSAEGEYEDEAGFCKSATIEEIREAGYALTPGRYVGMPEAEEDDEPIDEKIARLTAELTAALDESARLDAVVREQLGRLK
MGSDKIHHHHHHMVRQFLPLNGLRAFEASARHLSFTRAAIELCVTQAAVSQQVKGLEKRLGVALFQRLPRGLKITAEGEALLPTVTSSFDQMATTLDRIEAGQVRELLFLGVVGTFAVGWLLPRLAAFQKRHPFIDVRVSTNNNRVDMAAEGLDFAIRFGQGSWHGTDAFRLFEAPLSPLCTPKLAEMLKEPADLMDATLLRSYRADEWSTWFAAAGVSPAAQVNAGIVFDTSLGMMEAALQGLGVALAPPSMFSRHLTSGAVMQPFPVTISLGSYWLTRLQSKPQTSAMQAFSDWLLETIGTA
MGSDKIHHHHHHMWDRGLHSYRMVHATLKCGCHYLGRVPKNVKFPVDKVLDDGSYLSWIAPDRKSKHKGGTRIQVRVIEYTIDSENGQQTYRLIPSLMDIALFPALLLATEYHQRWEIENTIDELKTHLNGRKTPIRSLKPREVVQEIYGWLLSHYAVRTLMFQAATAASISPLRLGFTGTLKVIRRAIADFQDANSEQLPFFLQANSGDFGAKNPYRRYIAALTQQRDFNLLILQNRLDHRFTNGCIPVFIIPKQINNREGLLQKTEVRK
